The results in this text go back to patent US20190202920A1 (F STAR BETA, published 2019).

Experiment [1] deals with T1, cell surface EGFR on human cancer cell lines (A431NS, MDA-MB-468, U87MG) (human, UniProt P00533 25-1210).
T1 construct: whole, on cells; The cell line of each entry is named under assay; also called EGFR on A431NS cells; EGFR on MDA-MB-468 cells
The experiment in a line: flow cytometry, blocking of biotinylated EGF binding to MDA-MB-468 cells.

For experiment [2], the target named is T2, His-tagged human EGFR (Sino Biological) (human, UniProt P00533 25-645).
T2 construct: also called His-tagged EGFR
Briefly: SPR (BIAcore T200), mAb^2 captured on anti-human Fab chip, His-tagged human EGFR as analyte, 1:1 fit.

Experiment [3] concerns the target T3, cell surface EGFR on HCC827 cells (E746-A750 deletion) (UniProt P00533 25-1210).
T3 construct: whole, on cells; Residues E746-A750 are deleted; a deletion cannot be written as a substitution
Briefly: flow cytometry on HCC827 cells.

In experiment [4] the target is T4, cell surface EGFR on NCI-H1975 cells (mutated EGFR L858R and T790M) (UniProt P00533 25-1210, limits assumed).
T4 construct: whole, on cells
The experiment in a line: flow cytometry on NCI-H1975 cells.

Positions count from the first letter of the chain named.

B1: mAb^2 FI/FS1-60 (bispecific antibody, human IgG1, kappa)
heavy: QVQLVQPGAEVKKPGTSVKLSCKASGYTFTTYWMHWVRQAPGQGLEWIGEINPTNGHTNYNQKFQGRATLTVDKSTSTAYMELSSLRSEDTAVYYCARNYVGSIFDYWGQGTLLTVSSASTKGPSVFPLAPSSKSTSGGTAALGCLVKDYFPEPVTVSWNSGALTSGVHTFPAVLQSSGLYSLSSVVTVPSSSLGTQTYICNVNHKPSNTKVDKRVEPKSCDKTHTCPPCPAPELLGGPSVFLFPPKPKDTLMISRTPEVTCVVVDVSHEDPEVKFNWYVDGVEVHNAKTKPREEQYNSTYRVVSVLTVLHQDWLNGKEYKCKVSNKALPAPIEKTISKAKGQPREPQVYTLPPSRDELDEGGPVSLTCLVKGFYPSDIAVEWESTYGPENNYKTTPPVLDSDGSFFLYSRLTVSHWRWYSGNVFSCSVMHEALHNHYTQKSLSLSPG
light: DIVMTQSPDSLAMSLGERVTLNCKASENVVSYVSWYQQKPGQSPKLLIYGASNRESGVPDRFSGSGSATDFTLTISSVQAEDVADYHCGQSYNYPYTFGQGTKLEIKRTVAAPSVFIFPPSDEQLKSGTASVVCLLNNFYPREAKVQWKVDNALQSGNSQESVTEQDSKDSTYSLSSTLTLSKADYEKHKVYACEVTHQGLSSPVTKSFNRGEC
The molecule B1 registered an IC50 in experiment [1] of 0.71 nM. In experiment [2], this molecule gave a dissociation constant Kd of 3.5 nM.

B2: mAb^2 RI/FS1-60 (bispecific antibody, human IgG2, kappa)
heavy: QVQLQESGPGLVKPSETLSLTCTVSGGSISIYYWSWIRQPPGKGLEWIGYVYYSGSTNYNPSLKSRVTISVDTSKNQFSLKLNSVTAADTAVYYCARGGYDFWSGYFDYWGQGTLVTVSSASTKGPSVFPLAPCSRSTSESTAALGCLVKDYFPEPVTVSWNSGALTSGVHTFPAVLQSSGLYSLSSVVTVPSSNFGTQTYTCNVDHKPSNTKVDKTVERKCCVECPPCPAPPVAGPSVFLFPPKPKDTLMISRTPEVTCVVVDVSHEDPEVQFNWYVDGVEVHNAKTKPREEQFNSTFRVVSVLTVVHQDWLNGKEYKCKVSNKGLPAPIEKTISKTKGQPREPQVYTLPPSRDELDEGGPVSLTCLVKGFYPSDIAVEWESTYGPENNYKTTPPVLDSDGSFFLYSRLTVSHWRWYSGNVFSCSVMHEALHNHYTQKSLSLSPG
light: not shown
In experiment [1], B2 came in with an IC50 of 0.45 nM. The dissociation constant Kd in experiment [2] came out at 3.6 nM.

B3: mAb^2 RI/FS1-65 (bispecific antibody, human IgG2, kappa)
heavy: B2 heavy with R409K, H414Y, Y418V, S419K
light: not shown
Consider B3, for which the values for the EC50 in experiment [3] and in experiment [4] were 3.56 nM and 2.16 nM, respectively. Also, binding in experiment [2] was characterised by a dissociation constant (Kd) of 1.8 nM.
